According to US20170355744A1 (published 2017):

Molecular target: T1, Untagged Naglu (human, UniProt P54802 24-743)
T1 construct: also called untagged Naglu protein; alpha-N-acetylglucosaminidase
T1 sequence: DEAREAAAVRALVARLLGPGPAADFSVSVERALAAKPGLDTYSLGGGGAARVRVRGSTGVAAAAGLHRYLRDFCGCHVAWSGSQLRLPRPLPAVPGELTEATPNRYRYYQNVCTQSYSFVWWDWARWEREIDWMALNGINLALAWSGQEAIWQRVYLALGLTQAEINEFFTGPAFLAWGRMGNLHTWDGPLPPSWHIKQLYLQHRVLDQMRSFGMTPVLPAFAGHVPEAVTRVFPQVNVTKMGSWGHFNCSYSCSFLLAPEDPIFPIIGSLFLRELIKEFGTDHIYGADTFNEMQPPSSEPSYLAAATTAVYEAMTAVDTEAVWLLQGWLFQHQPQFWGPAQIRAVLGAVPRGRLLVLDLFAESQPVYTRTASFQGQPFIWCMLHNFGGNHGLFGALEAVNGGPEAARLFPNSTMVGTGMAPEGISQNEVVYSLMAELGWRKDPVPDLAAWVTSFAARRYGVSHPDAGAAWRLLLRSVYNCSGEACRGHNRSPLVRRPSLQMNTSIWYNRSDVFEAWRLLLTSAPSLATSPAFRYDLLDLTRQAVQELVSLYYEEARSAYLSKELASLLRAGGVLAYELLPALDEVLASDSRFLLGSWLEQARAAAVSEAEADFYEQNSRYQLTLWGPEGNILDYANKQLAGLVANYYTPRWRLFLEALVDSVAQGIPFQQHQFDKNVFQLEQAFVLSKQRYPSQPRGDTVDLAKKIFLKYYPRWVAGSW
Test: IGF2R competitive binding assay (displacement of biotinylated IGF-II from plate-coated IGFIIR domains 10-13)
Experimental: To measure the ability of the Naglu fusion protein constructs to bind to the IGF-II receptor a competitive binding assay is carried out. A fragment of the IGFIIR involved with IGF-II binding (domains 10-13, named protein 1288) is coated onto 96-well plates. Biotinylated IGF-II is incubated with the receptor in the presence of increasing amounts of competitors: either control IGF-II (non-biotinylated), or fusion protein sample (containing an IGF-II-derived GILT epitope tag). Receptor-bound biotinylated IGF-II is detected with streptavidin conjugated to horseradish peroxidase (HRP) and a chemiluminescent HRP substrate. The ability of the fusion protein to inhibit binding of biotinylated IGF-II to the IGFIIR is calculated from inhibition curves and reported as an IC₅₀ value (concentration required to achieve 50% binding inhibition).
For the assay, IGFIIR is coated in a white Reacti-bind plate (Pierce, Cat#437111) at 0.5 μg/well in a volume of 100 μl (69.6 nM/per well) in coating buffer. The plate is sealed and incubated overnight at room temperature. The plate is then washed 3× with wash buffer, blocked with blocking buffer and then washed again 3× with wash buffer (300 μl/well).

binding result: no binding
B1: fragment of the IGFIIR involved with IGF-II binding (domains 10-13, named protein 1288) (receptor, UniProt P11717 1367-1989, looked up)
chain: TECSFKDGAGNSFDLSSLSRYSDNWEAITGTGDPEHYLINVCKSLAPQAGTEPCPPEAAACLLGGSKPVNLGRVRDGPQWRDGIIVLKYVDGDLCPDGIRKKSTTIRFTCSESQVNSRPMFISAVEDCEYTFAWPTATACPMKSNEHDDCQVTNPSTGHLFDLSSLSGRAGFTAAYSEKGLVYMSICGENENCPPGVGACFGQTRISVGKANKRLRYVDQVLQLVYKDGSPCPSKSGLSYKSVISFVCRPEARPTNRPMLISLDKQTCTLFFSWHTPLACEQATECSVRNGSSIVDLSPLIHRTGGYEAYDESEDDASDTNPDFYINICQPLNPMHGVPCPAGAAVCKVPIDGPPIDIGRVAGPPILNPIANEIYLNFESSTPCLADKHFNYTSLIAFHCKRGVSMGTPKLLRTSECDFVFEWETPVVCPDEVRMDGCTLTDEQLLYSFNLSSLSTSTFKVTRDSRTYSVGVCTFAVGPEQGGCKDGGVCLLSGTKGASFGRLQSMKLDYRHQDEAVVLSYVNGDRCPPETDDGVPCVFPFIFNGKSYEECIIESRAKLWCSTTADYDRDHEWGFCRHSNSYRTSSIIFKCDEDEDIGRPQVFSEVRGCDVTFEWKTKVVCPP
notes: domain: domains 10-13; Coated on the plate at 0.5 ug/well; also called IGF2R
